Experiments:
Conditions in all cases: protein: recombinant, tags: N-term Twin-Strep-tag, C-term 6xHis
L7Ae [1] = target: L7Ae (Archaeoglobus fulgidus (printed A. …, UniProt O29494 1-119)); assay: SPR; SPR: 10 mM HEPES pH 7.4, 150 mM NaCl, 1 mM MgCl2, 0.05% P20, 0.25 mM TCEP, 0.1 mg/ml BSA, 25 ug/ml yeast tRNA, 25 C; EMSA: 10 mM HEPES-KOH pH 7.5, 140 mM KCl, 10 mM NaCl, 1 mM MgCl2, 0.1 mM TCEP, 0.01% Tween-20, 10 ug/ml yeast tRNA (1x of the printed 5x buffer)
dL7Ae [2] = target: dL7Ae (Archaeoglobus fulgidus (printed A. …, UniProt O29494 1-119, E34K;K37E;R41E;I88G;E89G;V90G;P91G;C92S)); assay: as above
dL7Ae [3] = target: dL7Ae (Archaeoglobus fulgidus, UniProt O29494 2-119, E34K;K37E;R41E;I88G;E89G;V90G;P91G;C92S); assay: SPR (Biacore T200, RNA captured, protein analyte); SPR running buffer: 10 mM HEPES pH 7.4, 150 mM NaCl, 0.05% Surfactant P20, 1 mM MgCl2, 0.25 mM TCEP, 0.1 mg/ml BSA, 25 ug/ml yeast tRNA, 25 C; RNA captured by its 3' docking sequence on biotinylated 2'-OMe RNA
L7Ae [4] = target: L7Ae (Archaeoglobus fulgidus, UniProt O29494 2-119); assay: as above
Chain of L7Ae (O29494 2-119): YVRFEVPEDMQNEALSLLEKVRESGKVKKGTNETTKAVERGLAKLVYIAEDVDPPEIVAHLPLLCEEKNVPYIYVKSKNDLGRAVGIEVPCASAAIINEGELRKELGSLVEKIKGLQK

Chain of L7Ae (Archaeoglobus fulgidus (O29494 whole entry): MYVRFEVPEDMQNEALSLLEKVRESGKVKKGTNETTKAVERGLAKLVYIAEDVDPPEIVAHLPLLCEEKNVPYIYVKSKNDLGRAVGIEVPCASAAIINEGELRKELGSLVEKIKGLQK
Chain of dL7Ae (O29494 2-119 E34K/K37E/R41E/I88G/E89G/V90G/P91G/C92S): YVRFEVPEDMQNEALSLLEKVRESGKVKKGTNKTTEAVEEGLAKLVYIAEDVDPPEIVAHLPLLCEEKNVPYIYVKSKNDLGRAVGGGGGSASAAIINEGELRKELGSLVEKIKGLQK
Chain of dL7Ae (Archaeoglobus fulgidus (O29494 whole entry E34K/K37E/R41E/I88G/E89G/V90G/P91G/C92S): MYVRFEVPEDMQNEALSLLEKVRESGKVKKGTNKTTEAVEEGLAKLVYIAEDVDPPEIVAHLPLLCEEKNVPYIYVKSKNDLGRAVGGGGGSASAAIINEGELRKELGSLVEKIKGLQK

B1: dKt (dKt_SPR) (structured_RNA)
RNA: GGCUGGGGCGUCAUCCGAAAGGUGCCCCAGCCAAAUCGACGAAAGACACAGAACG
L7Ae [1]; hairpin, defective kink-turn
  binding result: no binding
dL7Ae [2]; hairpin, defective kink-turn
  binding result: no binding
dL7Ae [3]; hairpin, defective kink-turn
  binding result: no binding
L7Ae [4]; hairpin, defective kink-turn
  binding result: no binding

B2: CS1-M1 (structured_RNA)
RNA: GGUGGCUGAGAAAGGCGAAAGCCUUGUGAUGCCAUCAAAUCGACGAAAGACACAGAACG
L7Ae [1]; hairpin
  Kd: 1.81 nM

B3: CS1-M3 (structured_RNA)
RNA: GGUGGCAGUGAAAGGCGAAAGCCUUGUUAGGCCAUCAAAUCGACGAAAGACACAGAACG
L7Ae [4]
  binding result: no binding

B4: CS1-M2a (structured_RNA)
RNA: GGUGGCAUAGAAAGGCGAAAGCCUUGUGAGGCCAUCAAAUCGACGAAAGACACAGAACG
L7Ae [4]
  binding result: binds

B5: CS1-M2 (structured_RNA)
RNA: GGUGGCAUAGAAAGGCGAAAGCCUUGUGUGGCCAUCAAAUCGACGAAAGACACAGAACG
L7Ae [4]
  binding result: no binding

B6: CS1-M2b (structured_RNA)
RNA: GGUGGCAAAGAAAGGCGAAAGCCUUGUGAGGCCAUCAAAUCGACGAAAGACACAGAACG
L7Ae [4]
  binding result: binds

B7: CS1-M2c (structured_RNA)
RNA: GGUGGCAGAGAAAGGCGAAAGCCUUGUGUGGCCAUCAAAUCGACGAAAGACACAGAACG
L7Ae [4]
  binding result: binds

B8: CS1 (structured_RNA)
RNA: GGUGGCAGAGAAAGGCGAAAGCCUUGUGAGGCCAUCAAAUCGACGAAAGACACAGAACG
L7Ae [1]; hairpin, internal loop
  Kd: 1.49 nM

B9: Box C/D Kt (Kt_SPR) (structured_RNA)
RNA: GGAUCGCGUGAUCCGAAAGGUGACGAUCCAAAUCGACGAAAGACACAGAACG
L7Ae [1]; hairpin with kink-turn
  Kd: 0.0213 nM
dL7Ae [2]; hairpin with kink-turn
  binding result: no binding
dL7Ae [3]; hairpin with kink-turn
  binding result: no binding
L7Ae [4]; hairpin with kink-turn
  Kd: 0.0213 nM

B10: CS2 (structured_RNA)
RNA: GGAUGCAGAGAACGAAAGUUCCAUGACGCAUCCAAAUCGACGAAAGACACAGAACG
L7Ae [1]; hairpin, asymmetric internal loop (putative kink-turn)
  Kd: 0.00571 nM

B11: CS2-M4 (structured_RNA)
RNA: GGAUGCAGAGAACGAAAGUUCCAUGCCGCAUCCAAAUCGACGAAAGACACAGAACG
L7Ae [4]
  binding result: binds

B12: CS2-M3 (structured_RNA)
RNA: GGAUGCAGAGAACGAAAGUUCCAUUACGCAUCCAAAUCGACGAAAGACACAGAACG
L7Ae [1]; hairpin
  Kd: 200 nM

B13: CS2-M1 (structured_RNA)
RNA: GGAUGCAAAGAACGAAAGUUCCAUGACGCAUCCAAAUCGACGAAAGACACAGAACG
L7Ae [4]
  binding result: binds

B14: CS2-M2 (structured_RNA)
RNA: GGAUGCAGCGAACGAAAGUUCCAUGACGCAUCCAAAUCGACGAAAGACACAGAACG
L7Ae [4]
  binding result: no binding
